Reference: patent US20130260436A1, “Methods of Identifying and Characterizing Natural Product Gene Clusters” (Victoria LInk Limited, priority 2010, published 2013)
“And” between values parts separate entries of the source, which are not always exact repeats. Equal entries are not always repeated.

B1: slEntF: mBpsA with T-domain from entF gene of E. coli W3110; SEQ ID NO: 11 (protein)
chain: MTLQETSVLEPTLQGTTTLPGLLAQRVAEHPEAIAVAYRDDKLTFRELASRSAALADYLEHLGVSADDCVGLFVEPSIDLMVGAWGILNAGAAYLPLSPEYPEDRLRYMIENSETKIILAQQRLVSRLRELAPKDVTIVTLRESEAFVRPEGTEAPAARSARPDTLAYVIYTSGSTGKPKGVMIEHRSIVNQLGWLRETYAIDRSKVILQKTPMSFDAAQWEILSPANGATVVMGAPGVYADPEGLIETIVKHNVTTLQCVPTLLQGLIDTEKFPECVSLQQIFSGGEALSRLLAIQTTQEMPGRALINVYGPTETTINSSSFPVDPADLDEGPQSISIGSPVHGTTYHILDKETLKPVGVGEIGELYIGGIQLARGYLHRDDLTAERFLEIELEEGAEPVRLYKTGDLGQWNNDGTVQFAGRADNQVKLRGYRVELDEISLAIENHDWVRNAAVIVKNDGRTGFQNLIACIELSEKEAALMDQGNHGSHHASKKSKLQVKAQLSNPGLRDDAELAARPAFDLEGAEPTPEQRARVFARKTYRFYEGGAVTQADLLGLLGATVTAGYSRKAADLAPAELGQILRWFGQYISEERLLPKYGYASPGALYATQMYFELEGVGGLKPGYYYYQPVRHQLVLISEREATGKATAQIHFIGKKSGIEPVYKNNILEVLEIETGHMVGLFEQILPAYGLDIHDRAYEPAVKDLLDVADEDYYLGTFELVPHAGARDDQAEVYVQTHGGKVAGLPEGQYRYENGELTRFSDDIVLKKHVIAINQSVYQAASFGISVYSRAEEEWLKYITLGKKLQHLMMNGLNLGFMSSGYSSKTGNPLPASRRMDAVLGANGVDSAPMYFFVGGRISDEQIGHEGMREDSVHMRGPAELIRDDLVSFLPDYMIPNRVVVFDRLPLSANGKIDVKALAASDQVNAELVERPGRAPKAGSETIIAAAFSSLLGCDVQDADADFFALGGHSLLAMKLAAQLSRQVARQVTPGQVMVASTVAKLATIIDREVAQESSRFVRLHAETGKARPVICWPGLGGYPMNLRSLAGEIGLGRSFYGVQSYGINEGETPYETITEMAKKDIEALKEIQPAGPYTLWGYSFGARVAFETAYQLEQAGEKVDNLFLIAPGSPKVRAENGKVWGREASFANRGYTTILFSVFTGTISGPDLDRCLETVTDEASFAEFISELKGIDVDLARRIISVVGQTYEFEYSFHELAERTLQAPISIFKAVGDDYSFLENSSGYSAEPPTVIDLDADHYSLLREDIGELVKHIRYLLGE
B2: slPvdD1: mBpsA with T-domain from first module of pvdD of P. aeruginosa PAO1; SEQ ID NO: 5 (protein)
chain: MTLQETSVLEPTLQGTTTLPGLLAQRVAEHPEAIAVAYRDDKLTFRELASRSAALADYLEHLGVSADDCVGLFVEPSIDLMVGAWGILNAGAAYLPLSPEYPEDRLRYMIENSETKIILAQQRLVSRLRELAPKDVTIVTLRESEAFVRPEGTEAPAARSARPDTLAYVIYTSGSTGKPKGVMIEHRSIVNQLGWLRETYAIDRSKVILQKTPMSFDAAQWEILSPANGATVVMGAPGVYADPEGLIETIVKHNVTTLQCVPTLLQGLIDTEKFPECVSLQQIFSGGEALSRLLAIQTTQEMPGRALINVYGPTETTINSSSFPVDPADLDEGPQSISIGSPVHGTTYHILDKETLKPVGVGEIGELYIGGIQLARGYLHRDDLTAERFLEIELEEGAEPVRLYKTGDLGQWNNDGTVQFAGRADNQVKLRGYRVELDEISLAIENHDWVRNAAVIVKNDGRTGFQNLIACIELSEKEAALMDQGNHGSHHASKKSKLQVKAQLSNPGLRDDAELAARPAFDLEGAEPTPEQRARVFARKTYRFYEGGAVTQADLLGLLGATVTAGYSRKAADLAPAELGQILRWFGQYISEERLLPKYGYASPGALYATQMYFELEGVGGLKPGYYYYQPVRHQLVLISEREATGKATAQIHFIGKKSGIEPVYKNNILEVLEIETGHMVGLFEQILPAYGLDIHDRAYEPAVKDLLDVADEDYYLGTFELVPHAGARDDQAEVYVQTHGGKVAGLPEGQYRYENGELTRFSDDIVLKKHVIAINQSVYQAASFGISVYSRAEEEWLKYITLGKKLQHLMMNGLNLGFMSSGYSSKTGNPLPASRRMDAVLGANGVDSAPMYFFVGGRISDEQIGHEGMREDSVHMRGPAELIRDDLVSFLPDYMIPNRVVVFDRLPLSANGKIDVKALAASDQVNAELVERPYRAPGSELEQRIAAIWSEILGVERVGLDDNFFELGGHSLLATRVISRVRQEQQLDASLKALFERPVLEAFAQGLEREVAQESSRFVRLHAETGKARPVICWPGLGGYPMNLRSLAGEIGLGRSFYGVQSYGINEGETPYETITEMAKKDIEALKEIQPAGPYTLWGYSFGARVAFETAYQLEQAGEKVDNLFLIAPGSPKVRAENGKVWGREASFANRGYTTILFSVFTGTISGPDLDRCLETVTDEASFAEFISELKGIDVDLARRIISVVGQTYEFEYSFHELAERTLQAPISIFKAVGDDYSFLENSSGYSAEPPTVIDLDADHYSLLREDIGELVKHIRYLLGE

Assays:
[1] = molecular target: PP1183, putative phosphopantetheinyl transferase of Pseudomonas putida KT2440 (Pseudomonas putida KT2440); test: cell-based or functional assay
[2] = molecular target: PcpS, phosphopantetheinyl transferase of Pseudomonas aeruginosa PAO1 (Pseudomonas aeruginosa PAO1); test: cell-based or functional assay
[3] = molecular target: Sfp, phosphopantetheinyl transferase of Bacillus subtilis subsp. spizizenii ATCC6633 (Bacillus subtilis subsp. spizizenii ATCC6633); test: cell-based or functional assay
[4] = system: BpsA, single module non-ribosomal peptide synthetase of Streptomyces lavendulae ATCC 11924, purified recombinant 6His-tagged protein (apo form)
[5] = system: E. coli harbouring an activating PPTase; test: In vivo pigment synthesis activity of BpsA derivatives relative to wild type BpsA; type: cell-based; conditions: for Relative activity (in vivo pigment synthesis relative to wild type BpsA): E. coli, supernatant A590
Excerpt: A detailed description of the method used for generation of mBpsA derivatives is given in Section 4.15. Briefly, a plasmid containing bpsA lacking its native T-domain (pBPSA3) was created. This plasmid contained restriction enzyme sites which were subsequently used to introduce foreign T-domain sequence. Foreign T-domains were then amplified from the chromosomal DNA of their host organisms and introduced into pBPSA3 to generate mBpsA derivatives which contained T-domains from foreign NRPS proteins in place of the native T-domain. Only the final embodiment of the T-domain swapping platform is described in this application. This embodiment is the result of rational in-silico design as well as trial and error, which are not described. Using this final platform, five different mBpsA derivatives were generated and subsequently assessed for in vivo pigment synthesis capacity in E. coli harbouring an activating PPTase. Table 3.1 gives a summary of the mBpsA derivatives generated as well as their in vivo pigment synthesis activities relative to wild type BpsA. The derivation of in vivo pigment synthesis activity was as described in 4.10.
For second tier screening, up to 45 improved clones, along with a positive and negative control, were stored as duplicate glycerol stocks in a 96wp. From this plate duplicate overnight cultures were established in LB supplemented with 0.4% glucose and appropriate antibiotics. […] Overnight cultures were grown for 16-20 h (37° C. 200 rpm) before transfer of 20 μl of each culture into a fresh well containing 130 μL LB supplemented with 115 mM L-Gln, 0.6 mM IPTG and appropriate antibiotics. Assay plates set up in this fashion contained duplicate cultures for each clone from two separate overnights. Assay plates were then wrapped in foil and incubated for 6-24 h (18° C., 200 rpm), depending on activity of improved clones. After incubation cells were collected at the corner of each well by centrifugation and OD 590 values determined using a microplate reader. Assays were repeated at least twice before determination of clones for sequence analysis.
In vivo pigment synthesis efficiencies for recombinant BpsA proteins described in Section 3.2 were derived from three separate assays. This was necessary due to the fact that pigment synthesis of wild type BpsA saturate before activity of mBpsA derivatives was detectable. Replicate cultures for determination of in vivo pigment synthesis activity were established from overnight starter cultures in a 96 wp as described in Section 4.9.3 The values presented are derived as follows: quadruplicate values for WT BpsA and oBpsA (mutant with reduced activity) were determined after 3 h, at which point pigment production was not saturated for WT. A separate quadruplicate assay was then run to obtain a value for slEntF by comparison to oBpsA after 12 h. Quadruplicate values for slPsT and slPvdD2 were then obtained in a separate assay by comparison to slEntF after 12 h.

| Molecule | IC50 (carrier protein competition with BpsA for limiting CoA) [1] [nM] | kcat/Km (estimate derived from IC50) (Min^-1 · µM^-1) [1] | IC50 (carrier protein competition with BpsA for limiting CoA) [2] [nM] | kcat/Km (estimate derived from IC50) (Min^-1 · µM^-1) [2] | IC50 (carrier protein competition with BpsA for limiting CoA) [3] [nM] | kcat/Km (estimate derived from IC50) (Min^-1 · µM^-1) [3] | Relative activity (in vivo pigment synthesis relative to wild type BpsA) [5] | other results |
| --- | --- | --- | --- | --- | --- | --- | --- | --- |
| The peptide carrier protein of the first module of the Pseudomonas aeruginosa NRPS PvdD (pPCP), puri | 280 | 4.1 | 560 | 9.84 | 450 | 1.11 |  |  |
| The peptide carrier protein of the Microcysitis aeruginosa NRPS/PKS MycG (mPCP), purified recombinant His6 tagged | 180 | 6.3 | 990 | 5.55 | 150 | 3.33 |  |  |
| PcpS, phosphopantetheinyl transferase of Pseudomonas aeruginosa PAO1 |  |  |  |  |  |  |  | Km (BpsA as variable substrate), BpsA coupled indigoidine assay [4]: 6.5 µM; kcat (BpsA as variable substrate), BpsA coupled indigoidine assay [4]: 0.687 s⁻¹; kcat/Km (BpsA as variable substrate), BpsA coupled indigoidine assay [4]: 107000 M⁻¹ s⁻¹ |
| The aryl carrier protein from Nostoc punctiforme protein HetM (npArCP), purified recombinant His6 tagged | 6000 | 0.19 | 8460 | 0.65 | 140 | 3.51 |  |  |
| slDhbF: mBpsA with T-domain from first module of dhbF of B. subtilis; SEQ ID NO: 13 |  |  |  |  |  |  | 0% |  |
| B1 |  |  |  |  |  |  | 5.14% and 5.14 +/− 0.28% |  |
| B2 |  |  |  |  |  |  | 0% | In vivo pigment synthesis capacity (qualitative) ([5]; E. coli with activating PPTase, pigment development agar or broth): completely inactive enzyme |
